Results as given in patent publication US20110319869A1 (US Dept. of Health and Human Services, published 2011).

B1: MUC-1 peptide P-92 (native), ATWGQDVTSV (peptide)
peptide: ATWGQDVTSV
notes: Synthetic 10-mer from the non-VNTR region of MUC-1

Each molecule was assayed against T1, HLA-A2 molecule (human) (assay: T2 cell binding assay, flow cytometry with anti-HLA-A2 mAb).
T1 construct: also called HLA-A2 on T2 cells (174CEM-T2; T2A2 cells)
Method: (§1) In this assay, increased stability (accumulation) of HLA-A2 molecules on the surface of T2 cells as a consequence of peptide binding is measured by increased binding of antibody directed against HLA-A2 molecule. Briefly, 1×10⁶ cells in serum-free Iscove's modified Dulbecco's complete medium were incubated with peptides at a concentration of 50 μg/ml in 24-well culture plates at 37° C. in 5% CO₂. Flow cytometry for peptide binding was performed using T2 cells and single-color analysis. After cells were washed three times in DPBS, as described above, they were incubated for 1 h with a 1:100 dilution of HLA-A2—specific MAb (One Lambda, Inc.) per 10⁶ cells. UPC-10 (Cappel/Organon Teknika) was used as isotype control. The cells were then washed three times and incubated with 1:100 dilution of FITC-labeled anti-mouse IgG (BD Biosciences). Analysis was conducted with the FACScan, as described above. Cells were maintained on ice during all cell preparation and staining.
The primary amino acid sequence of human MUC-1 was analyzed for consensus motifs for novel HLA-A2 binding peptides.

binding result | Molecule
no binding (tested: 50 µg/ml peptide) | YRPGENLNL [NCA peptide, YRPGENLNL]

Each molecule was assayed against T1, HLA-A2 molecule (assay: T2 cell binding assay: flow cytometry of surface HLA-A2 with anti-HLA-A2 mAb; negative control).

T2 binding (relative fluorescence) (relative fluorescence values) | Molecule
200 | CEA CAP-7 (HLA-A3 binding peptide)

The molecules below were run against T1, HLA-A2 molecule (assay: T2 cell binding assay: flow cytometry of surface HLA-A2 with anti-HLA-A2 mAb after incubation with peptide (50 µg/ml)).
Method: as §1, with “staining. […]” for “staining.”

T2 binding (relative fluorescence) | Molecule
740 | B1
369 | VLVALAIVYL [MUC-1 peptide P-1169, VLVALAIVYL]
433 | LQRDISEMFL [MUC-1 peptide P-1069, LQRDISEMFL]
461 | LAFREGTINV [MUC-1 peptide P-1105, LAFREGTINV]
467 | GTQSPFFLLL [MUC-1 peptide P-4, GTQSPFFLLL]
442 | TLASHSTKTD [MUC-1 peptide P-1104, TLASHSTKTD]
482 | REGTINVHDV [MUC-1 peptide P-1108, REGTINVHDV]
591 | WGQDVTSVPV [MUC-1 peptide P-94, WGQDVTSVPV]
431 | ALLVLVCVLV [MUC-1 peptide P-1162, ALLVLVCVLV]
422 | TISDVSVSDV [MUC-1 peptide P-1135, TISDVSVSDV]

Biological target: T1, HLA-A2 molecule
Test: as above
Remark: another data set of the same source
Method: as §1

T2 binding (relative fluorescence) | Molecule
510 relative fluorescence values | B1
821 relative fluorescence values | ALWGQDVTSV (also called L-93; MUC-1 peptide) [MUC-1 agonist peptide P-93L, ALWGQDVTSV]
823 relative fluorescence values | AIWGQDVTSV (also called I-93) [MUC-1 peptide analogue P-93I]
280 relative fluorescence values | AIWGQDVTSL [MUC-1 peptide analogue I-93/L-101]
723 relative fluorescence values | AMWGQDVTSV [MUC-1 peptide analogue M-93]
736 relative fluorescence values | ALWGQDVTSL [MUC-1 peptide analogue L-93/L-101]
325 relative fluorescence values | AMWGQDVTSL [MUC-1 peptide analogue M-93/L-101]
